The record followed here is PMC4458873.

This assay addresses Purified recombinant Syrian hamster vimentin (Syrian hamster) (UniProt P02544). Put plainly: cross-linking; vimentin at 3 μM, preincubated without or with 150 mM NaCl, 20 μM DBB for 1 h at 37 °C; 7.5% SDS-PAGE and WB.

Take “Purified recombinant Syrian hamster vimentin (from UniProt P02544 1-465) (natural protein)”: the fold cross-linked dimer, polymerized versus non-polymerized vimentin is 3.9 fold.
